# Reference: patent US20240100159A1, “USE OF IL-7R-ALPHA-GAMMA AGONIST PEPTIDES IN CELL MANUFACTURING” (MEDIKINE, INC., priority 2022, published 2024)
# Bridge positions count the residues as written; N and C are the ends. Ends that are not written are not given here.
# Columns and labels:
# [1] = biological target: T1, IL-7Rγc subunit (Homo sapiens, UniProt P31785); assay: Competitive binding assays, specific binding site on the IL-7Rγc subunit; conditions: against Rγc ligands SEQ ID NO: 461-465
# T1 sequence (P31785 23-369): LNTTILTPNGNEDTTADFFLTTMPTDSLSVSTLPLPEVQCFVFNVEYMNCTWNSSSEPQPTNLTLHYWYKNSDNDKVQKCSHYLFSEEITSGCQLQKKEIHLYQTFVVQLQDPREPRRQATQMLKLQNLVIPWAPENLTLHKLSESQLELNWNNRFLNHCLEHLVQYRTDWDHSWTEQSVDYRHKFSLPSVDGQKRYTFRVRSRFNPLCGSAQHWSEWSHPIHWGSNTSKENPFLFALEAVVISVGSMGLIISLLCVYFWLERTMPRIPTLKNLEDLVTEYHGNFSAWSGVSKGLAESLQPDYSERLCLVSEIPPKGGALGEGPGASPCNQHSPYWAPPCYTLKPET
# Source text: The specific binding site of the IL-7Rγc subunit for these Rγc ligands can be characterized using competitive binding assays.
# [2] = biological target: T2, IL-7Rα subunit (Homo sapiens, UniProt P16871); assay: Competitive binding assays, unique binding site on the IL-7Rα subunit; conditions: against IL-7Rα ligands SEQ ID NO: 455-459
# T2 sequence (P16871 21-459): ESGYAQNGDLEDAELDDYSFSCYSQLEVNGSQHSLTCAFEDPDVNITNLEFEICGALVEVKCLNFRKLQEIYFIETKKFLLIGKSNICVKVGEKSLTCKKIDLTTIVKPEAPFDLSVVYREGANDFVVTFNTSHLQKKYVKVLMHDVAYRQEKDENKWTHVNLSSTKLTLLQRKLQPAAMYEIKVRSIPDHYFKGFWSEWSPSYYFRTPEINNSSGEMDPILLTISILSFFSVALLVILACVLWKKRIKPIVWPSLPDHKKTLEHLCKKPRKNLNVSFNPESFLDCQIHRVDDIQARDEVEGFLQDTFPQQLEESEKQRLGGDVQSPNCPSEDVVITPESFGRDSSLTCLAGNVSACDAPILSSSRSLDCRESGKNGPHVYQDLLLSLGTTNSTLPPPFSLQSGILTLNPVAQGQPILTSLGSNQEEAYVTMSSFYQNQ
# Source text: The unique binding site of the IL-7Rα subunit for these IL-7Rα ligands can be characterized using competitive binding assays as described, for example, in Example 12.
# [3] = biological target: T3, hu-IL-7Rα subunit (human, UniProt P16871 21-239, limits assumed); assay: not stated; binding to a unique binding site on the IL-7Rα subunit
# T3 construct: also called human interleukin-7 receptor subunit α; CD127
# T3 sequence (looked up): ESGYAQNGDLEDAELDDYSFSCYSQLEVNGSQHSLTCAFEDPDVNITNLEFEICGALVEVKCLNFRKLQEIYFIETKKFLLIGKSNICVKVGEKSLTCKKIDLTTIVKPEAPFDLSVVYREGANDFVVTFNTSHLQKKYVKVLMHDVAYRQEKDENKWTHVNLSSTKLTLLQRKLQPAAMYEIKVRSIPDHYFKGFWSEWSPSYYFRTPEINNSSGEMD
# [4] = biological target: T4, hu-IL-7Rα subunit (human), P16871; assay: as above
# T4 chain: T3 sequence (looked up)
# [5] = biological target: T5, hu-IL-7Rγc subunit (human), P31785; assay: not stated; binding to the specific binding site on the IL-7Rγc subunit
# T5 chain: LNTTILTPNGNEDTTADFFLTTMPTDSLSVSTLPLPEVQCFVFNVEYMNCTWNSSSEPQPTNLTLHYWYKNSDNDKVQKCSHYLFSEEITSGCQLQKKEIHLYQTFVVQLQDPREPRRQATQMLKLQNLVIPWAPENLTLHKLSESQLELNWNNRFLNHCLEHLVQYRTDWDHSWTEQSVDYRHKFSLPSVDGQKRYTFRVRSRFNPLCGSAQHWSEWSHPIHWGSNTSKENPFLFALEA
# [6] = biological target: T6, hu-IL-7Rγc subunit (human, UniProt P31785 23-262, limits assumed); assay: phage ELISA competition assay
# T6 construct: also called human Rγc subunit; common γc receptor
# T6 sequence (looked up): T5 chain
molecule,measurement,setting,value
SEQ ID NO: 460: An IL-7Rα ligand having the amino acid sequence of SEQ ID NO: 460; sequence not printed in the text (YDCRIAQVGELCDL),competition for binding to the specific binding site on the IL-7Rγc subunit with the group of Rγc ligands,[1],does not compete
V V C Q D W E G V E L C W Q (VVCQDWEGVELCWQ) [SEQ ID NO: 261],competition for binding to the unique binding site on the IL-7Rα subunit with the group of IL-7Rα ligands,[2],does not compete
QCVHWDLDTLFGCIREQLEL (also called IL-7Rα ligand) [SEQ ID NO 458],IC50,[3],< 10 µM
VYCAEIGEYRVCRQ (modifications not checked) [SEQ ID NO 456],IC50,[4],< 10 µM
KVCEMWGGVLLCWN (modifications not checked) [SEQ ID NO 461],IC50,[5],< 10 µM
QCIHWDIETLLSCV (also called IL-7Rα ligand) [SEQ ID NO 455],IC50,[3],< 10 µM
YMACSSGLSLCRLS (modifications not checked) [SEQ ID NO 457],IC50,[4],< 10 µM
"GGVVCQDWEGVELCWQGG (disulfide 5-14 (inferred), also called Rγc ligand) [SEQ ID NO 327]",IC50,[6],< 100 µM
"GGVPWCTLDPGSLQCAWF (not fully specified (bridges); cysteine pairing not given here, also called IL-7Rα ligand) [SEQ ID NO 459]",IC50,[3],< 10 µM
